The nature of this data set: soluble fraction after stress (log2 fold change); higher = more stays soluble; pooled small domains, quantitative proteomics. As to conditions: stress: 50 degC. Summed up:
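After stress at 50°C, the amount of each protein still soluble was measured. This was done on pooled custom libraries of small protein domains, using high-throughput quantitative proteomics. The figure given is a base-two log fold change and stands for aggregation propensity, with higher values meaning more protein stays in solution.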
Take “HMNFIPGEKINLKIVQEGKEKNQGVGYLSDGTMVIVENGSQKLGQDVEVVVIKNIQSSAGKIVFGDISK”: the “soluble fraction (log2)” value turned out to be 0.0978. In the case of “HMTNVIPKAMAPFNGSTIIADGIKNIKDHIDNLYITVGYKGATLSEHVINKGVSAVFNTTGKGNAWWVYN” it was 0.0606; in that of “HMPTLLGYKHILSAWNPDTNTVFRTSYGYDGEYGSREEAMQALIKMIQEGGKATPRGIEESEVPIY”, -0.126. Take “HMGAYIPSYAPVDINAATHTVVRGDTVYNISKRYHVSQEDFRAWNGMADNTLSIGQVVKVKPAGYTAPK”: the “soluble fraction (log2)” value was -0.087.

Regarding “HMSSSMDAIAEIIRSIPRGDHLTAPEVYELAKQRGLKLSLSTVYRTLNKLKVVGDVITVSGDRGLRYESV”, the “soluble fraction (log2)” value is -0.181. On to “HMVYFAKNIRHLRRLRGMSQELLAAELDITRARLGAYEESRSEPPLHLLIKISEFFKLPVDIIVKNDLTKS”, for which the “soluble fraction (log2)” value was -3.66. Take “HMASMHDGVAARLRAMVFERELAPGEFIDERRLAQQWQISRTPLREALKVLAAEGLVELVPRRGARVV”: the “soluble fraction (log2)” value is -0.298. For “HMESAEQTGEELAARVNVLQTVSQALARELGREAAVEELADKMKMTVDEVKDIMKMAMDAMSM”, the “soluble fraction (log2)” value worked out at 0.168. For “HMPHFGVVLQMDDWKTLRDRLEARDDIDWVMKPNLRFEGQPGEQATLFIRDPSGNALEFKGFADLSQVF” the value was -0.348; for “HMTRNGTVTFFNHDKGYGFIKDVLTQESVFVHINSLSEPINEQNKVSFEIEMGPRGSNAINVKLI”, -1.97. In the case of “HMINIGANIRAIRKQKNIKQVDLVRLLQLEGVEITRETLVKIESGVQHIKASQLRGIRDALGTTYDELL” it was -2.95; in that of “HMSSYMQMQLERLESLLQKNDLTDSDKYDIRQLVEDLDKVPESVSPNLVGAYMTIKNRYASVLKTVL”, 0.501; in that of “HMGMEENLLKERKQILMDIMKSKEYQPMKVKELAMVLNVPKEDREELRYVLNELMNEGKIVESKKGKFSIA”, 0.177. Consider “HMPKTLTEAAYEDIKQWILEGEITPGSKISLEDTASRLEVSMTPIREALTKLQQEGLVEYIPRAGWRASK”, for which the “soluble fraction (log2)” value is 0.173. Regarding “HMLDKKKHLEQGRKIIEDQLAKYKIQPSFDTLKKLSAYYGLNNKEQLYAQVGMGFLELENLDEILQ”, the “soluble fraction (log2)” value was ≥ 0.62. In the case of “HMAKPVNISAEPYHYDPTRFRVTFELPRLSDQPRKRIRKVAPAGLDREQALAWAKRLEREVLHELLR” it was -0.494; in that of “HMRFEWFDTLTDREKEIFGLIATGFDNQQIADRLQLAEQTVRNNISTIYSKLEVKDRFEIIRLANTI”, -0.706; in that of “HMPDGTATATASVNVRSGASTLSPVLGVLRVGESIGVTGQANGGWVPVNYNGRAGYVYAAYLSFD”, -0.161.

On to “HMVIVGGDVIVHYVDTEGKKISDDVVKSGNVGEDYSTDQKTILGYRFKEVQGNTSGKFTDKTQVVTYIYT”, for which the “soluble fraction (log2)” value was found to be 0.404. For “HMNDLDSLWDIWENLNERGIGDKSEEGQELRDAIREFIDTNELNVRVTRNKTNEDLLTDIEDALEVAKNS” the value was -0.33; for “HMKIEDSNTIKLKANQAYKTHYYSEAIKLYDELLTKYEPNSEAIKLNLAHAHFKAKGFAAASKLYT”, 0.144; for “HMWVETITTKAGITKYKFQERYTDTYSGKTKRVSVTYTSNSRQAYKLAQAELQKKIDLATNTD”, -0.849. In the case of “HMYTVRDGDTVFGILNRFGVSLDELLSLNPELSNGLKAGMVLKIK” it was -0.491.

Regarding “HMTKPLHELLSQREFQVFTQLAAGRSVGEIAQQLSLSSNTVSTYRARILEKTGTRNDVELALYAIRR”, the “soluble fraction (log2)” value is -1.52. For “HMTMIIQLDKNITQEQRQFLVEELNRLSISPNFVSTQFTNYIVGIPKKEFDIRLIGNLPGIADIHFV” the value was -0.183; for “HMKAEKEIEKIKFTIYNEFKRKQEENHFLPPWDGTKMLRQFVLGVVANNPKYQHVNTDILYRDLLLLYYQ”, -0.968.

For the sequence “HMFTLDIGTIIRNRRLELNLTLEEIGNAVGVSKSTVQKWENGFISNMKRDKISALAKVLNINPVTLITGEY”, the “soluble fraction (log2)” value is -1.12. In the case of “HMDATFKVRVSVPDLNIRSGPGTNYAATGRFTGVGVFTITAVQSGQGSSSGWGKLKSGAGWIALDYAKR” it was -2.39; in that of “HMNVDSLIGQTARVIVDINNNDSIGYALVGGQEWTARAENDNDIIPKDTLVEIVGVSGVKLIVRRKE”, -0.044; in that of “HMFGEDNLKSKEIKERVTEVAKHADDPVWIEARRKWKDENPDQNVKDYQQAYISGRIHELPWDVSYI”, 0.142.

Turning to “HMITNSTEIEAMIDSLIKENPEQAEQYRNGNTKVVGWFVGQMMKASKGKANPQVVGDLLAQKLVG”, the “soluble fraction (log2)” value is 0.0323.

Regarding “HMARLQEVVVRVPVEDGQTLAAIYREAEVIERADEGTGVLLTVRIPAPLLGRLRRLEGVHVQP”, the “soluble fraction (log2)” value is -0.125. Consider “HMAVQAESDIIKRAALLRNLGNTSMQLKNIDQAIDFYKQGIKLHPEDAELKYNLSQALRQKSQSNN”, for which the “soluble fraction (log2)” value turned out to be 0.0399. For “HMNEIDLEAAKRIALQNAGVESADAAFTKAQLDYDDGVAEYEIEFVAGSTKYEYEISAANGTVLKSSKESV” the value was -0.0497; for “HMGNSRNDQDLQTQIIKILAEGPASSRTLIETLTIEDEAALLKTLKRLLMNKKISLTPSNLYKL”, -0.487. For “HMEFGEVLAQLRQKRHISQAELGRAIFVSGGTISNYEKGVHFPDVEKLLLLADYFNVTTDYLLGRT” the value was -2.04; for “HMKQTMIVVMEKDAPQSQIDDMVKRIEGLGLKAHTIVGTQRTVVAAIGEKREDTRESLAGSPGVAEVVPIL”, 0.181; for “HMTDSSEILEAALKEAEDAAHEVLNGTFSVQLEPQKAYIRRLQHMLIDRMNLSSTSKGKEPYRSLLVYR”, -1.11.

As to “HMKKHAPSLMRQIRRELKEGKSPESLLSKAKLISDSYYRSLSFYLLIPYLSPNSKQFQEAISLAGKDID”, the “soluble fraction (log2)” value amounted to 0.255.

With “HMELPSDEHLDDISHLARIGHKKGLQEKIIQLEQQGLASAEFIQQLKTLTNNFQFEKIIQWVDSEL”, the “soluble fraction (log2)” value was -0.0426. Regarding “HMNSVKSPMPGTILGLKVSVGDTVKVGDELLVLESMKMENMINSPIDGTVSKILISEGDSVQHGQELII”, the “soluble fraction (log2)” value amounted to 0.215. “HMRLPNGYGSITKLSGKRRKPFMVRITTGYDNEGKQLMSVLGYYATRTEALAVLAEYNKNPYNPI”: the “soluble fraction (log2)” value is -2.57. For “HMGDEPGAGYKWREDVLLRVMSEHGIDESARDDFVRHAVKFDDDDNLYLKKAEIIAAAEAWESSS” the value was 0.17; for “HMSLTYTGKFILNHNNIDQSSFNINIYLVNKQTIIQITKPFYGNVLNIKFNEENDLIISPKQFS”, -0.146. In the case of “HMLNKRQAEILAEVSRLKEITPSELYKLQPNVSSRTLRRDMDVLVNKGLVSQDGSTKSTKYTYL”, the “soluble fraction (log2)” value was 0.23. With “HMRQMSEELQSAKEALEDRRTQEKAVLLLMEHRNISNDEAHRLLRKLAMDQGKRLPEVARALVSMAGVL”, the “soluble fraction (log2)” value amounted to 0.132.

As to “HMKEIDVPNVVGASENAARKLLESYGFQVEVQWENGERVDNAVVKSYSPNGSAKSGSTVTIVLGT”, the “soluble fraction (log2)” value was found to be 0.062. For “HMSMFSEILRTLRKAKGLTQRELAGHLGVTQQMVAKWEKGQSTPGPDQLTRMAELLEVSTDTLLGR” the value was -0.162. With “HMFYWTDLIGLDVINTADERLGKVVGLIETGANAVLRVMGDDQVERLLPFGSAVVLTVEKEAGQIRVEW”, the “soluble fraction (log2)” value was -0.89.

For the sequence “HMDINIETLNYYVGKAKIPLSELRISVKNIDLFLSGEKQPTFNQLSSIAKKLNIPTGLLLLDESIEV”, the “soluble fraction (log2)” value was -2.74.

For “HMEDQFWQNRAEMALASARRAGRIVTYAEMADAADIPAPQRIHKLTLWLEATMRQDHASGQPLRAALV”, the “soluble fraction (log2)” value amounted to 0.0463. For “HMVSVEELLSSLDPNEATVLKLLAERSSGVDELMERSGLDFSALSEAITNLELFGYIAREMDGVYSFS” the value was -0.559; for “HMNDTNEEAVLSIILKNPQATQGAIAKEVGASLSTVKRIMRNLQKSGKLRREGTNRNGSWVVTGQK”, 0.0846.

On to “HMLRVGASVTANGKYWYDSYGSKPFGTANNLSTTVTRIVPGNPYPIHIGSYGWLQESQIQIT”, for which the “soluble fraction (log2)” value was -1.03. In the case of “HMREKLKEYVHLLFAGTVGKEDMEQEILQNTLDRFDDWVARGFSEEDAYRKAVSGIGDIDALLG” it was -0.288; in that of “HMAPTGTDRQTPHTRDELYLVLSGTGTFVNGDARHPFGPGDALFVPAGAEHRFEDFSDDFRTWVVFYGAEG”, -0.162; in that of “HMGMSMNEFLNNRLEQLAVEAVDKSSLGEEIFFYAEPATINLFKDAVDEDEYKVVFPVLKSIIEVEQKLSR”, -1.03. With “HMQDREKNIAEGRDIIEHEFMRLGISLSRYDLDGLASKLNVKAGDDVLAGVGAGDIRVSQIISQLG”, the “soluble fraction (log2)” value was -0.00799. In the case of “HMQETPAMLAMKELPTEDEQRIYMMLQEDYDSVLLVKTIRNAFSQNPQLTRQQLLPIILTWLMT” it was -1.14; in that of “HMETQAGELQDAIRDAIAALPPRTREVFLMSRERNLRYGEIAEALGISVKAVEANMSRALRQLREKLSPFL”, -0.454; in that of “HMIGAKVLVNGQLHRDSYGEGPGQTESNATRLVNYINMKGSHPYHVTTLDGGWRGWVTADSVQV”, 0.223. For “HMQKITPDNWTYIRSLIRQKWSPDQIDQWLKKHPDVGFTVSRETIYQYVKEDRQKDGDLYLSLRRAGKSY” the value was -1.71. In the case of “HMGHKKLTIELQDEIIVLPKELEKYNLTVSDDKTSLIYTYKSRGEKTGITDLLRDIKDAGLRLKDLITEQ”, the “soluble fraction (log2)” value was 0.434. As to “HMAPSPEGAAILRESVESVARDQVDRVALTMTARGYTTAEIAAALMVDRSTISRRLYAMRDRYHAQQDNAQ”, the “soluble fraction (log2)” value was -0.37. In the case of “HMNSRQPEEEALFELLAKNPYSDEQLEEIRIAIGSGISYKDVLVIADIKNTAKQMKKLRLKFTKDTG” it was -0.122; in that of “HMDPQDGTVKFFNGARGFGFITPDGGGADVFVHVSAVERAGLTQLVEGQRVNFQTLPDTKGKGPKAVNLKV”, 0.0729; in that of “HMDDPITVAYRETEDAIAQVQREGFPVEMPPANSYIRRIQHELAGRFNLDSESYGDEPERRVRIRPQQ”, -0.00875. For the sequence “HMSFPDTYFKGNKVIGLSYNDLKKFLNNAGYSKFDEEVEEWGEKRVSIEDDMVDFYLEDDKVVSI”, the “soluble fraction (log2)” value was -0.233.

Take “HMAPPPPEGYIHRWIRESVMGFDDKKNLSARIREGFELVRAEEYPDYEAPTVMDGKHAGVIANGGLLLARF”: the “soluble fraction (log2)” value was -0.148.

The record behind these values is the domain aggregation screens of Martell et al. (2025).
